In paper PMC11597407 (2024) one finds Kd data, which are given here for 2 molecules.

Ends that are not written are not given here.

In test [1] the target is T1, talin1 F2F3 domains.
T1 chain: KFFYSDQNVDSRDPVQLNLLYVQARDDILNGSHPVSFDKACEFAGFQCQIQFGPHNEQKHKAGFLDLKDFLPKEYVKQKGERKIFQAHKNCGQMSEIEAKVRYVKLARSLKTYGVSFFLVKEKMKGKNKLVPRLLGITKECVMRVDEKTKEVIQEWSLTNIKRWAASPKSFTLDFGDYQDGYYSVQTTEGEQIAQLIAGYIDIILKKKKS
Briefly: FP.

The target in test [2] is T2, talin2 F2F3 domains.
T2 chain: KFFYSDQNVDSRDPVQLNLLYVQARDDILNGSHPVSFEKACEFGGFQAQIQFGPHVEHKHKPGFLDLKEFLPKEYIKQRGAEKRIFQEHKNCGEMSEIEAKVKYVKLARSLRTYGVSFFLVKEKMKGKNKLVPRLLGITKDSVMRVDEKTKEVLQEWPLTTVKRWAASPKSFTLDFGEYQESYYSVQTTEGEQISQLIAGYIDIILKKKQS
The test can be described thus: FP.

B1: β1A (peptide)
chain: KLLMIIHDRREFAKFEKEKMNAKWDTGENPIYKSAVTTVVNPKYEGK
modifications: not fully specified (N-terminus)
What is called Kd is the equilibrium constant for the complex coming apart. A high value points to weaker binding. B1 returned a Kd in test [1] of 95.1 µM.

B2: β1A (peptide)
chain: B1 chain
modifications: not fully specified (N-terminus)
B2: in test [2], the Kd turned out to be 35.3 µM. This counts as double-digit micromolar.
